Measurements taken from IntAct's records for PubMed 21346797.

B1: Response regulator aspartate phosphatase H (Bacillus subtilis), Q59HN8 (parent)
chain: MSQAIPSSRVGVKINEWYKMIRQFSVPDAEILKAEVEQDIQQMEEDQDLLIYYSLMCFRHQLMLDYLEPGKTYGNRPTVTELLETIETPQKKLTGLLKYYSLFFRGMYEFDQKEYVEAIGYYREAEKELPFVSDDIEKAEFHFKVAEAYYHMKQTHVSMYHILQALDIYQNHPLYSIRTIQSLFVIAGNYDDFKHYDKALPHLEAALELAMDIQNDRFIAISLLNIANSYDRSGDDQMAVEHFQKAAKVSREKVPDLLPKVLFGLSWTLCKAGQTQKAFQFIEEGLDHITARSHKFYKELFLFLQAVYKETVDERKIHDLLSYFEKKNLHAYIEACARSAAAVFESSCHFEQAAAFYRKVLKAQEDILKGECLYAY
partner: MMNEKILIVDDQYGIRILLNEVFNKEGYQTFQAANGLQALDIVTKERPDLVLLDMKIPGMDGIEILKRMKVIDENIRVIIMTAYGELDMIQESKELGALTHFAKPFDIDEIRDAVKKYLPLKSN

Variants of: B1
Conditions: with sp0f_bacsu spo0F

Row | effect of a mutation on the interaction | Variant
1 | disrupting interaction | L50A
2 | disrupting interaction | E137A

Second part, the variant before the results:

Row | Variant | effect of a mutation on the interaction
3 | D134A | decreasing interaction
4 | F58A | decreasing interaction
5 | Q47N | disrupting interaction
6 | Y175A | disrupting interaction
